Tests used:
[1] = molecular target: marmoset SEMA4D-His (marmoset); test: BIACORE; antibody captured with goat anti-human IgG Fc, marmoset SEMA4D-His as analyte
[2] = molecular target: marmoset SEMA4D-His (marmoset); test: BIACORE; antibody captured with goat anti-human IgG Fc, marmoset SEMA4D-His as analyte (second row for this antibody)
[3] = molecular target: cynomolgus monkey SEMA4D-His (cynomolgus monkey); test: receptor blocking; antibody dilution series pre-incubated with SEMA4D-His, binding to 293PLXNB1 cells (Plexin B1) read by flow cytometry
[4] = molecular target: human SEMA4D-His (human) (UniProt Q92854); test: as above
[5] = molecular target: mouse SEMA4D-His (mouse) (UniProt O09126); test: as above
[6] = molecular target: rat SEMA4D-His (rat); test: as above
Chain of rat SEMA4D-His (rat) (chain, as listed by the source): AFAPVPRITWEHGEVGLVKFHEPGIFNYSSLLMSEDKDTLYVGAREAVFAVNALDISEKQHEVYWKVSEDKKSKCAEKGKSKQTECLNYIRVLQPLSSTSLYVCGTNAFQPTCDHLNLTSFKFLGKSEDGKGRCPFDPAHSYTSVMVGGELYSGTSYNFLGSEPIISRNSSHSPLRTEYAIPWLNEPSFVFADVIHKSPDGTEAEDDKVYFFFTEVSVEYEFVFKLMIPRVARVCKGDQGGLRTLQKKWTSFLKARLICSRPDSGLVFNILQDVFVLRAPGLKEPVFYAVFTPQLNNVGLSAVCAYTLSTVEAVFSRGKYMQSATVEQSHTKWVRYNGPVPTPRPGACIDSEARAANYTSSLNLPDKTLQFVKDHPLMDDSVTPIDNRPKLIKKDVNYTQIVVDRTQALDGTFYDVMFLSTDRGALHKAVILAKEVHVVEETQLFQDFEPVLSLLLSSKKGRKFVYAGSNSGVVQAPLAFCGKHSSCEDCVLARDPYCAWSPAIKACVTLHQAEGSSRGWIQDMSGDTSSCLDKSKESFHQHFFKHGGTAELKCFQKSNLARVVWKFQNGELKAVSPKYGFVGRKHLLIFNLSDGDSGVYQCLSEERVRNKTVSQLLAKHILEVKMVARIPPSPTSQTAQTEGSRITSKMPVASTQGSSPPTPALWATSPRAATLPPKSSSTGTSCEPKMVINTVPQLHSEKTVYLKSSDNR

Chain of marmoset SEMA4D-His (marmoset) (chain, as listed by the source): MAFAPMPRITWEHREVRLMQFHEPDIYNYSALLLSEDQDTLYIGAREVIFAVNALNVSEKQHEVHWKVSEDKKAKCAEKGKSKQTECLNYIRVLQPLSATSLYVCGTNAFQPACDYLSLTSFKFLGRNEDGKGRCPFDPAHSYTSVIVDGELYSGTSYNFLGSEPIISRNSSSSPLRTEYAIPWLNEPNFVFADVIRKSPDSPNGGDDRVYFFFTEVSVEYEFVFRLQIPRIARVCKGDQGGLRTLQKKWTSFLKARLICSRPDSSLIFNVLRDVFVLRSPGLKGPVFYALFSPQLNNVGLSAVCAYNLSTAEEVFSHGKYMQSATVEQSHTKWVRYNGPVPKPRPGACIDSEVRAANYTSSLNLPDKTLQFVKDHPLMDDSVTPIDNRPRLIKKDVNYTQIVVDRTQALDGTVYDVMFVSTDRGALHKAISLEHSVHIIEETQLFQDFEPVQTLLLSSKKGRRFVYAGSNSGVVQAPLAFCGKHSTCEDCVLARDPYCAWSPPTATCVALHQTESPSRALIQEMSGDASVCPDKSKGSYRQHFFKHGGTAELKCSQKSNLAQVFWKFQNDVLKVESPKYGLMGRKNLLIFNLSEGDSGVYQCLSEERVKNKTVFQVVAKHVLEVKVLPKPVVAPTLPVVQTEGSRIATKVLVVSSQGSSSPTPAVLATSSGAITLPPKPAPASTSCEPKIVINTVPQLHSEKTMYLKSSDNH
Chain of human SEMA4D-His (human) (Q92854 22-734 limits assumed): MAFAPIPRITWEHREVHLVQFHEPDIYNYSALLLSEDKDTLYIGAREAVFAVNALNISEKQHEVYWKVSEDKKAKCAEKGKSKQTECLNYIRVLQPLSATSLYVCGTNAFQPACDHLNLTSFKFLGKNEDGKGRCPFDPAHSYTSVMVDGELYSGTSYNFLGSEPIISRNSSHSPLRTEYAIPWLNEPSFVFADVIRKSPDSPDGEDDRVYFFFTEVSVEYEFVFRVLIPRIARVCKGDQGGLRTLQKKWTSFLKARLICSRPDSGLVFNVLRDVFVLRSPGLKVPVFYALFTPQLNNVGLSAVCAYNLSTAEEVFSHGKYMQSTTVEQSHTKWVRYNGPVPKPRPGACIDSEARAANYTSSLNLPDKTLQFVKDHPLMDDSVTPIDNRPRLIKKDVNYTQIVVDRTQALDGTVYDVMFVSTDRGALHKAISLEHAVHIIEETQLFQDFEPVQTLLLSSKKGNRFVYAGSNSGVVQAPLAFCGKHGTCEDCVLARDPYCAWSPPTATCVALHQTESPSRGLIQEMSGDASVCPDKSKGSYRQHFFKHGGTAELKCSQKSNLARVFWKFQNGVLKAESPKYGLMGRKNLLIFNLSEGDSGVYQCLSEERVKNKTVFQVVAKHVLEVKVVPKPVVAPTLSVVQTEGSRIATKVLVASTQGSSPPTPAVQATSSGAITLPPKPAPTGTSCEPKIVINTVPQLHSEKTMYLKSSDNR
Chain of mouse SEMA4D-His (mouse) (O09126 24-733 limits assumed): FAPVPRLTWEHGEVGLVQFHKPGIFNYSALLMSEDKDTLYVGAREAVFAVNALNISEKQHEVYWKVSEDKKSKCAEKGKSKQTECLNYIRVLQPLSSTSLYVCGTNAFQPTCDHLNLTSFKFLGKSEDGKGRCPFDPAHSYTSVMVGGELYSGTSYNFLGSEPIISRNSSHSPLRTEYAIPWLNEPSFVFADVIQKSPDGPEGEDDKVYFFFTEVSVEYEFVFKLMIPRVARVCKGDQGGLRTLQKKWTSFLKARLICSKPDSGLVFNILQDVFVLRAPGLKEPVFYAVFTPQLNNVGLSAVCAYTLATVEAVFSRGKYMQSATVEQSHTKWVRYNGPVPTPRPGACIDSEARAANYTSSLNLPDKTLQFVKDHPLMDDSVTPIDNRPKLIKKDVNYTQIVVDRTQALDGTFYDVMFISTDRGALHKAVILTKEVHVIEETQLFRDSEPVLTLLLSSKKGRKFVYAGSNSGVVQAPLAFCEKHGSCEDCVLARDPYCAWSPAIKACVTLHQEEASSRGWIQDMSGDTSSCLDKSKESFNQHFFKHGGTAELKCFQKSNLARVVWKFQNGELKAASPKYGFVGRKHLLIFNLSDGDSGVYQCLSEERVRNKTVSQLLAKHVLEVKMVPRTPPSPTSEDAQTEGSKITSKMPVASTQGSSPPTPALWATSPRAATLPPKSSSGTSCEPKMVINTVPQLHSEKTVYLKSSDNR

B1: humanized MAb 2503 (VX15/2503) (antibody, INN chains, looked up, V domains shown)
VH: QVQLVQSGAEVKKPGSSVKVSCKASGYSFSDYYMHWVRQAPGQGLEWMGQINPTTGGASYNQKFKGKATITVDKSTSTAYMELSSLRSEDTAVYYCARYYYGRHFDVWGQGTTVTVSS
VL: DIVMTQSPDSLAVSLGERATINCKASQSVDYDGDSYMNWYQQKPGQPPKLLIYAASNLESGVPDRFSGSGSGTDFTLTISSLQAEDVAVYYCQQSNEDPYTFGQGTKLEIK
[1]
  Ka: 2.06e+08 M⁻¹
  Kd: 4.86 nM
  koff: 0.00118 s⁻¹
  kon: 243000 M⁻¹ s⁻¹
[2]
  Ka: 2.4e+08 M⁻¹
  Kd: 4.17 nM
  koff: 0.00126 s⁻¹
  kon: 302000 M⁻¹ s⁻¹
[3]
  EC50: 0.5 nM
[4]
  EC50: 0.3 nM
[5]
  EC50: 0.4 nM
[6]
  EC50: 0.6 nM
